In publication PMC3317499 (2012):

B1: Myc-Mal-TIR wild type (TIR domain of human MyD88 adaptor-like protein, residues 79-221, double-tagged with His6 and Myc) [human] / GST-TLR4-TIR (TIR domain of human TLR4, residues 670-839, GST fusion) [human] (parent complex)
chain 1: SSRWSKDYDVCVCHSEEDLVAAQDLVSYLEGSTASLRCFLQLRDATPGGAIVSELCQALSSSHCRVLLITPGFLQDPWCKYQMLQALTEAPGAEGCTIPLLSGLSRAAYPPELRFMYYVDGRGPDGGFRQVKEAVMRYLQTLS
chain 2: GENIYDAFVIYSSQDEDWVRNELVKNLEEGVPPFQLCLHYRDFIPGVAIAANIIHEGFHKSRKVIVVVSQHFIQSRWCIFEYEIAQTWQFLSSRAGIIFIVLQKVEKTLLRQQVELYRLLSRNTYLEWEDSVLGRHIFWRRLRKALLDGKSWNPEGTVGTGCNWQEATSI
B2: Myc-Mal-TIR wild type (TIR domain of human MyD88 adaptor-like protein, residues 79-221, double-tagged with His6 and Myc) [human] / GST-MyD88-TIR (TIR domain of human MyD88, residues 148-296, GST fusion) [human] (parent complex)
chain 1: B1 chain 1
chain 2: TTLDDPLGHMPERFDAFICYCPSDIQFVQEMIRQLEQTNYRLKLCVSDRDVLPGTCVWSIASELIEKRCRRMVVVVSDDYLQSKECDFQTKFALSLSPGAHQKRLIPIKYKAMKKEFPSILRFITVCDYTNPCTKSWFWTRLAKALSLP

Variants of: B1
Assay: GST pull-down, quantified Western blot; n = 3 separate experiments; parent: 1; read off a plot

First: chain 1 SSRWSKDYDVCVCHSEEDLVAAQDLVSYLAGSTASLRCFLQLRDATPGGAIVSELCQALSSSHCRVLLITPGFLQDPWCKYQMLQALTEAPGAEGCTIPLLSGLSRAAYPPELRFMYYVDGRGPDGGFRQVKEAVMRYLQTLS [chain 1 E30A]
Second: chain 1 SSRWSKDYDVCVCHSEEDLVAAQDLVSYLEGSTASLRCALQLRDATPGGAIVSELCQALSSSHCRVLLITPGFLQDPWCKYQMLQALTEAPGAEGCTIPLLSGLSRAAYPPELRFMYYVDGRGPDGGFRQVKEAVMRYLQTLS [chain 1 F39A]
The ratio to parent of the first is higher: ~0.39 for the first, ~0.24 for the second.

Variants of: B2
Assay: as above

First: chain 1 E30A
Second: chain 1 F39A
The ratio to parent of the first is higher: ~0.76 for the first, ~0.42 for the second.
